Biological target: T1, complement C3b (UniProt P01024 23-667; P01024 751-1663)
T1 construct: range 1-645;range 729-1641; The residue numbers seem to count on C3 without its signal peptide
Assay: Fig. S13A-C and results not shown

T1 sequence (P01024 23-667 limits assumed, chain 1 of 2): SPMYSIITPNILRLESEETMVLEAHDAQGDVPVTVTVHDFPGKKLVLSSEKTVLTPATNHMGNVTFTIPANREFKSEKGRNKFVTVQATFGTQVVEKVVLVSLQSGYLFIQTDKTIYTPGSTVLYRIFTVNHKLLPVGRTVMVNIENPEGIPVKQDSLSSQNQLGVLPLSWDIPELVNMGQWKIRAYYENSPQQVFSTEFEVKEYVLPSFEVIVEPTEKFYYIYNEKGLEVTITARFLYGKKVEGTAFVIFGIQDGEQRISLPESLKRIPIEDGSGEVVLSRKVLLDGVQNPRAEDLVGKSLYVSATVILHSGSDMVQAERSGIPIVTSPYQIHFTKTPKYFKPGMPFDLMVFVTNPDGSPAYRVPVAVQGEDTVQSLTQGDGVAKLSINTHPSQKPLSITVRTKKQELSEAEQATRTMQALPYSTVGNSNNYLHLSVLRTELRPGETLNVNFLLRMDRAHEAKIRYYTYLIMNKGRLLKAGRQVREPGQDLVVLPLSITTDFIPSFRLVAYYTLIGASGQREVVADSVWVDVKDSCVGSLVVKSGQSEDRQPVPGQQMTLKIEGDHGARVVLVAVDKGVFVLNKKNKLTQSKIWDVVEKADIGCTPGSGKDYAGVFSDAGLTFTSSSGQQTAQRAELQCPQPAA
T1 sequence (P01024 751-1663 limits assumed, chain 2 of 2): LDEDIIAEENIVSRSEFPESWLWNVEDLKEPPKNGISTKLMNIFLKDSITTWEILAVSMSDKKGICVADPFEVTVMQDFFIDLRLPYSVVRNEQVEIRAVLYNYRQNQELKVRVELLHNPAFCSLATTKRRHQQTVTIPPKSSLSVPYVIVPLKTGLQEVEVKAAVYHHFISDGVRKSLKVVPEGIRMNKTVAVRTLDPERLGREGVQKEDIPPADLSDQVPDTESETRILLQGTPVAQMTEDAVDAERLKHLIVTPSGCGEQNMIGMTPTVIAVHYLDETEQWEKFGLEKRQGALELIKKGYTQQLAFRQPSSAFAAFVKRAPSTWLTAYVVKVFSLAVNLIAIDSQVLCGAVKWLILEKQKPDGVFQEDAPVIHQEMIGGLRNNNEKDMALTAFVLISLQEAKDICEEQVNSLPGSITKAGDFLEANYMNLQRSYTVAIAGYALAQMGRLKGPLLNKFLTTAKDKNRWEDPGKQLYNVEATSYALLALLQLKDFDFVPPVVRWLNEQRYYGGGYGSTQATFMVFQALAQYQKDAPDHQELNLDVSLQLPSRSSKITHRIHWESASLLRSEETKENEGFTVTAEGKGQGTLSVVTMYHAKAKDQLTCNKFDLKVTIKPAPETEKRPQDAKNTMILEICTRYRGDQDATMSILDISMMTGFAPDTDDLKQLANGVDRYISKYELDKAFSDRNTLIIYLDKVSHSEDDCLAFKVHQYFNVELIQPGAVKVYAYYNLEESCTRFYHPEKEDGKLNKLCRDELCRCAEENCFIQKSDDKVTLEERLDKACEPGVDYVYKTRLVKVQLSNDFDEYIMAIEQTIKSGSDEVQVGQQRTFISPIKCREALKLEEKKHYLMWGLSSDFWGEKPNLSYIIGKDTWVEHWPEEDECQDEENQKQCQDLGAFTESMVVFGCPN

binding result: binds
B1: complement factor H (other, UniProt P08603 19-1231, looked up)
chain: EDCNELPPRRNTEILTGSWSDQTYPEGTQAIYKCRPGYRSLGNVIMVCRKGEWVALNPLRKCQKRPCGHPGDTPFGTFTLTGGNVFEYGVKAVYTCNEGYQLLGEINYRECDTDGWTNDIPICEVVKCLPVTAPENGKIVSSAMEPDREYHFGQAVRFVCNSGYKIEGDEEMHCSDDGFWSKEKPKCVEISCKSPDVINGSPISQKIIYKENERFQYKCNMGYEYSERGDAVCTESGWRPLPSCEEKSCDNPYIPNGDYSPLRIKHRTGDEITYQCRNGFYPATRGNTAKCTSTGWIPAPRCTLKPCDYPDIKHGGLYHENMRRPYFPVAVGKYYSYYCDEHFETPSGSYWDHIHCTQDGWSPAVPCLRKCYFPYLENGYNQNYGRKFVQGKSIDVACHPGYALPKAQTTVTCMENGWSPTPRCIRVKTCSKSSIDIENGFISESQYTYALKEKAKYQCKLGYVTADGETSGSITCGKDGWSAQPTCIKSCDIPVFMNARTKNDFTWFKLNDTLDYECHDGYESNTGSTTGSIVCGYNGWSDLPICYERECELPKIDVHLVPDRKKDQYKVGEVLKFSCKPGFTIVGPNSVQCYHFGLSPDLPICKEQVQSCGPPPELLNGNVKEKTKEEYGHSEVVEYYCNPRFLMKGPNKIQCVDGEWTTLPVCIVEESTCGDIPELEHGWAQLSSPPYYYGDSVEFNCSESFTMIGHRSITCIHGVWTQLPQCVAIDKLKKCKSSNLIILEEHLKNKKEFDHNSNIRYRCRGKEGWIHTVCINGRWDPEVNCSMAQIQLCPPPPQIPNSHNMTTTLNYRDGEKVSVLCQENYLIQEGEEITCKDGRWQSIPLCVEKIPCSQPPQIEHGTINSSRSSQESYAHGTKLSYTCEGGFRISEENETTCYMGKWSSPPQCEGLPCKSPPEISHGVVAHMSDSYQYGEEVTYKCFEGFGIDGPAIAKCLGEKWSHPPSCIKTDCLSLPSFENAIPMGEKKDVYKAGEQVTYTCATYYKMDGASNVTCINSRWTGRPTCRDTSCVNPPTVQNAYIVSRQMSKYPSGERVRYQCRSPYEMFGDEEVMCLNGNWTEPPQCKDSTGKCGPPPPIDNGDITSFPLSVYAPASSVEYQCQNLYQLEGNKRITCRNGQWSEPPKCLHPCVISREIMENYNIALRWTAKQKLYSRTGESVEFVCKRGYRLSSRSHTLRTTCWDGKLEYPTCAKR
notes: also called fH

— patent US20080045697A1 (Genentech, published 2008)
